In experiment [1] the target is T1, ADAMTS-5 lacking the C-terminal thrombospondin domain (UniProt Q9UNA0 262-874).
T1 sequence (looked up): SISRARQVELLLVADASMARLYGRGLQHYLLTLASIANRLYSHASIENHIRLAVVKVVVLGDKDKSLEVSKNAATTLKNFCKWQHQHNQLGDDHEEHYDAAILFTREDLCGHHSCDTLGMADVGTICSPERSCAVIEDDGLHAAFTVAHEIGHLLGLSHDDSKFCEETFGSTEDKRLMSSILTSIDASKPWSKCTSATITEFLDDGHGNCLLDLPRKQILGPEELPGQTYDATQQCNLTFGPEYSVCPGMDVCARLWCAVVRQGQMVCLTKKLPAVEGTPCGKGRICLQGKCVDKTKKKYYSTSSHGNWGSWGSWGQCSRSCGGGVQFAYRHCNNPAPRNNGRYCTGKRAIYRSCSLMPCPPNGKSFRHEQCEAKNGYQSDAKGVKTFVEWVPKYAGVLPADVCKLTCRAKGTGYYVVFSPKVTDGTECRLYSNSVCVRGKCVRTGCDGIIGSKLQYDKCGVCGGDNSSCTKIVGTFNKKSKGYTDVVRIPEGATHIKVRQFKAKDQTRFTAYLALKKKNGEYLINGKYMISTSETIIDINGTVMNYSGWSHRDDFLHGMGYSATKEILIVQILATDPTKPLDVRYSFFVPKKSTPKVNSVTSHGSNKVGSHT
The experiment in a line: steady-state enzyme inhibition kinetics.

In experiment [2] the target is LRP-1 ectodomain (low-density lipoprotein receptor-related protein 1) (UniProt Q07954 20-4419). In words: ELISA. (In an ELISA, binding on a coated surface is turned into a signal by an enzyme label.)
Sequence of LRP-1 ectodomain (low-density lipoprotein receptor-related protein 1) (Q07954 20-4419): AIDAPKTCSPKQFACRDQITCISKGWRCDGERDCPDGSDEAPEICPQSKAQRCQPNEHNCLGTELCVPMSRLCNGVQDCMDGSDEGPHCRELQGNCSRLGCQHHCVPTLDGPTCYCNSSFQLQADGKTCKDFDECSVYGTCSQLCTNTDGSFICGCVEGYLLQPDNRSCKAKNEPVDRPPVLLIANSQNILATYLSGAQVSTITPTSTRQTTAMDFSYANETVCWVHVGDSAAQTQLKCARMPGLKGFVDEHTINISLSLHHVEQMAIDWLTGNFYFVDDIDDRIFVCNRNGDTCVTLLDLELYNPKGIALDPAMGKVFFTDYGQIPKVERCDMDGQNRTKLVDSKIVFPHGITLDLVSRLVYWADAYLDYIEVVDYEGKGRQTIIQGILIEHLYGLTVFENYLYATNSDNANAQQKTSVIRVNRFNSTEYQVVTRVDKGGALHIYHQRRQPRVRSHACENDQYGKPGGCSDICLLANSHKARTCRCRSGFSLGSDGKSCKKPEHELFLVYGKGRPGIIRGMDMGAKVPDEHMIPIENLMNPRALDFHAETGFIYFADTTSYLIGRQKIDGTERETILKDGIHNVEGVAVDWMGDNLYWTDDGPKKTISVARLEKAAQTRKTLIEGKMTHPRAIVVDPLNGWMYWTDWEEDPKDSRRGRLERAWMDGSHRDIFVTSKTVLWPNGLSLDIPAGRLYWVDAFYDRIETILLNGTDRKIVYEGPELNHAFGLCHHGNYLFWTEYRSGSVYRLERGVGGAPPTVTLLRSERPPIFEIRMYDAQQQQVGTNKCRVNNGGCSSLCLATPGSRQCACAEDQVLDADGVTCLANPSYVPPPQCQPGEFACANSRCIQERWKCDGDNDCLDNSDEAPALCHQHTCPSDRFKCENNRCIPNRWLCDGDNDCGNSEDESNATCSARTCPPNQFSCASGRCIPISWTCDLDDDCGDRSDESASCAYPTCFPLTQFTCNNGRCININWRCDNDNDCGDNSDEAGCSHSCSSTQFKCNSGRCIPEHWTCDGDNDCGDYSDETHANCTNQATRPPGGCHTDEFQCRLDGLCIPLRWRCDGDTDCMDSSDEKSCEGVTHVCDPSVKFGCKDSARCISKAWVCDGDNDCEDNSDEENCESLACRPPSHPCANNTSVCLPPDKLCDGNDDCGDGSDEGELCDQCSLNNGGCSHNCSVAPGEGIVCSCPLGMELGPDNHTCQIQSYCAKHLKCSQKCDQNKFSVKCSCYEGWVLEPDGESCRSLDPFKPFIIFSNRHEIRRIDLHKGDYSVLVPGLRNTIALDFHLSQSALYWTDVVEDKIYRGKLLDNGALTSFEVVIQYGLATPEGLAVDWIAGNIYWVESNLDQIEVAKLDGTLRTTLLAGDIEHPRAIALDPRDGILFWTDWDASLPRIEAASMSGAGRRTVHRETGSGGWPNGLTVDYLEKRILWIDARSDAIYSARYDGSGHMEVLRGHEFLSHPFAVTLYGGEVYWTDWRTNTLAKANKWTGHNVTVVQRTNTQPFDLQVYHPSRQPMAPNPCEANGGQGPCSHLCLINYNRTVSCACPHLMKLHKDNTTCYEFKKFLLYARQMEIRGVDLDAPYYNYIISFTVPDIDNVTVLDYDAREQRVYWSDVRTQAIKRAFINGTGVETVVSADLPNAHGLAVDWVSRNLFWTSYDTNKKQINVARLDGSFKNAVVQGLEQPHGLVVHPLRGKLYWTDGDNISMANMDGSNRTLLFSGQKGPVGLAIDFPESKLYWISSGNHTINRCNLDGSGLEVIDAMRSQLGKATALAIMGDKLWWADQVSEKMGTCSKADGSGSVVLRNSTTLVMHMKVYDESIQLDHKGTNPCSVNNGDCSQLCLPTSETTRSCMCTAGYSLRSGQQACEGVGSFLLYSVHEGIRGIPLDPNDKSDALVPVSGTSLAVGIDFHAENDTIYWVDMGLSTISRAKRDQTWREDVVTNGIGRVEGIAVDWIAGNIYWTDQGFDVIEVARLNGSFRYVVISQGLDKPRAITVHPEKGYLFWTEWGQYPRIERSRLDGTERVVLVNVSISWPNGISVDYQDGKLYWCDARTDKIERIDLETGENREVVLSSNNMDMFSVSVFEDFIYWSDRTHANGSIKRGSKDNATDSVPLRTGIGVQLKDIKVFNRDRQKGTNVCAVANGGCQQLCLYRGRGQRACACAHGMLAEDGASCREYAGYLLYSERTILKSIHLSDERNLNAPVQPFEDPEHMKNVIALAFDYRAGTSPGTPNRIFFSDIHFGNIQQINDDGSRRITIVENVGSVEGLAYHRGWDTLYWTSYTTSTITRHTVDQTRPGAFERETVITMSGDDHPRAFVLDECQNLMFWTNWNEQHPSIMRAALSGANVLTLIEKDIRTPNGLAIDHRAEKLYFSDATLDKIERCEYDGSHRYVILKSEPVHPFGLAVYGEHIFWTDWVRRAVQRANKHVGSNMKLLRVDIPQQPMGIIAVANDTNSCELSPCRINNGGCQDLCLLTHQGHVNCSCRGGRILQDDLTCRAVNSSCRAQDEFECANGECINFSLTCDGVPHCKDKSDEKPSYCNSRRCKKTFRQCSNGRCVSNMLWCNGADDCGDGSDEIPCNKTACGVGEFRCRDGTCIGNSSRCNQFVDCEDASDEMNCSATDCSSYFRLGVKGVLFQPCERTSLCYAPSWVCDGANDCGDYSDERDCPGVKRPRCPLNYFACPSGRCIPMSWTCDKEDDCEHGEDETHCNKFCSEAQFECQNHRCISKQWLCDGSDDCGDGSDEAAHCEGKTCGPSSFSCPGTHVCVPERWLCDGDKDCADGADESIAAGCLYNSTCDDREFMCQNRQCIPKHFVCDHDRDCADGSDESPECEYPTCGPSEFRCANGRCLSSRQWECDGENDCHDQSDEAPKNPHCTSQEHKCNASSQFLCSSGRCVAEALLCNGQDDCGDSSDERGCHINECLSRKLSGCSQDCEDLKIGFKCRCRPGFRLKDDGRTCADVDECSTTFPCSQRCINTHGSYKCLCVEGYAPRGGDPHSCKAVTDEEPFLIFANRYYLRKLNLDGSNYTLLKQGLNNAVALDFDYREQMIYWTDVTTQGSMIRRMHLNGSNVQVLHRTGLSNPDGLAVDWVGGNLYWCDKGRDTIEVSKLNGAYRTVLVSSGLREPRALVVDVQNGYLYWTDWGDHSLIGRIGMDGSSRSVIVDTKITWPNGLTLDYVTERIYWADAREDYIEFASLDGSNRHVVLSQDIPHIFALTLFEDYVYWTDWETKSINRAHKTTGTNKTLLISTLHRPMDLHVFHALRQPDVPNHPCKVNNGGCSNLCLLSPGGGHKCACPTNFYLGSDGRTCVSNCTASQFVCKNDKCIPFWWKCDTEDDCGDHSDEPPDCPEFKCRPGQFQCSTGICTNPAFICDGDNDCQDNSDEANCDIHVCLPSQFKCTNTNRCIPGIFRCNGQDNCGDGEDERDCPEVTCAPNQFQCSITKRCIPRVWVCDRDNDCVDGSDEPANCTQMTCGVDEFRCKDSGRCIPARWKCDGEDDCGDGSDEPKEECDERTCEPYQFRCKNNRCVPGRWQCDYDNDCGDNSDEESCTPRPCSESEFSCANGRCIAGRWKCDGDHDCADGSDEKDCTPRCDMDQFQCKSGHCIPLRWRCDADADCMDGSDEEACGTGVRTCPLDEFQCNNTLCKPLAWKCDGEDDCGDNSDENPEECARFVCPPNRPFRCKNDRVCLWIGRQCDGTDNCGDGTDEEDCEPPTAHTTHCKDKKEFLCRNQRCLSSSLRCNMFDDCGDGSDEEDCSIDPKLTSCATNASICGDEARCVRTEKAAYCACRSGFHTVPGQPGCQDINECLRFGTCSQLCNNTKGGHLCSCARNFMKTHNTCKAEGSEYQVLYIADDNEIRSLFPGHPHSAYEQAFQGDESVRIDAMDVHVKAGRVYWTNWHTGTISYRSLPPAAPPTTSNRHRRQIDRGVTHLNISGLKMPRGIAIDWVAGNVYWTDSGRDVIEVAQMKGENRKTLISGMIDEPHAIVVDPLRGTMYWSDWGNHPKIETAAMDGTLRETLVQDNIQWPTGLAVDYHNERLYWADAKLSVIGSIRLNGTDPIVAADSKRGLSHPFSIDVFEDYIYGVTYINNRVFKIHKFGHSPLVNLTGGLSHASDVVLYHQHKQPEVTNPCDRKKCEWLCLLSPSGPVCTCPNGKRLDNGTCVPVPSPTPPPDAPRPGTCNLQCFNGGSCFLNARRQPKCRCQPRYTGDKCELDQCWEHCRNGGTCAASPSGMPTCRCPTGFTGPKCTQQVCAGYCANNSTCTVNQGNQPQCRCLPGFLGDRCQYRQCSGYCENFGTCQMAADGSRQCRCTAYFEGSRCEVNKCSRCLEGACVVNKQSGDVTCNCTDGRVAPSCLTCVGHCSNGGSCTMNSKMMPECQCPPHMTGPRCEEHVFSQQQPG

The term Ki denotes the equilibrium dissociation constant of an inhibitor or competing ligand from its target. Low readings indicate higher affinity, high ones lower affinity. As a reminder, the Kd is the equilibrium constant for the complex coming apart. Low values mean a tighter complex, high ones a looser complex.

B1: C-terminally FLAG-tagged human TIMP-3 (tissue inhibitor of metalloproteinases 3) (natural protein, UniProt P35625 24-211, looked up)
chain: CTCSPSHPQDAFCNSDIVIRAKVVGKKLVKEGPFGTLVYTIKQMKMYRGFTKMPHVQYIHTEASESLCGLKLEVNKYQYLLTGRVYDGKMYTGLCNFVERWDQLTLSQRKGLNYRYHLGCNCKIKSCYYLPCFVTSKNECLWTDMLSNFGYPGYQSKHYACIRQKGGYCSWYRGWAPPDKSIINATDP
In turn, B1 showed a Ki in experiment [1] of 1.36 ± 0.02 nM. The Kd in experiment [2] came out at 28 ± 6 nM.

(Values after PMC4210636 (Chemistry & Biology, 2014).)
